{
  "source": "patent US20130116129",
  "key": {"[1]": {"system": "mouse IgG (Mus musculus)", "assay": "SELEX"}, "[2]": {"system": "rat IgG (Rattus norvegicus)", "assay": "SELEX", "conditions": "uppercase RNA, lowercase DNA"}},
  "data": [
    {"sequence": "CGAUAGGUGUUGAGGGCGAUCUCAGCGCUUGUUG [T1-GGCGAT]", "values": [
      {"measurement": "binding signal", "setting": "[1]; beads alone 155, p=0.037, 37 C", "value": 691, "unit": "reads"}
    ]},
    {"sequence": "CGAUAGGUGUUGAGGGGUAUCUCAGCGCUUGUUG [T1-GGGTAT]", "values": [
      {"measurement": "binding signal", "setting": "[1]; beads alone 37, p=0.039, 37 C", "value": 787, "unit": "reads"}
    ]},
    {"sequence": "CGAUAGGUGUUGAGGUGGAUCUCAGCGCUUGUUG [T1-GTGGAT]", "values": [
      {"measurement": "binding signal", "setting": "[1]; beads alone 24, p=0.014, 37 C, library assigned to SEQ 2 from six-base random region", "value": 1560, "unit": "reads"}
    ]},
    {"sequence": "CGAUAGGUGUUGAGGUGGGUCUCAGCGCUUGUUG [T1-GTGGGT]", "values": [
      {"measurement": "binding signal", "setting": "[1]; beads alone 136, p=0.024, 37 C", "value": 730, "unit": "reads"}
    ]},
    {"sequence": "CGAUAGGUGUUGAGGUUGGUCUCAGCGCUUGUUG [T1-GTTGGT]", "values": [
      {"measurement": "binding signal", "setting": "[1]; beads alone 25, p=0.035, 37 C", "value": 605, "unit": "reads"}
    ]},
    {"sequence": "CGAUAGGUGUUGAGUGGGCUCUCAGCGCUUGUUG [T1-TGGGCT]", "values": [
      {"measurement": "binding signal", "setting": "[1]; beads alone 78, p=0.014, before selection 201, p=0.123, 37 C", "value": 605, "unit": "reads"}
    ]},
    {"sequence": "CGAUAGGUGUUGAGUUCGAUCUCAGCGCUUGUUG [T1-TTCGAT]", "values": [
      {"measurement": "binding signal", "setting": "[1]; beads alone 44, p=0.019, 37 C", "value": 548, "unit": "reads"}
    ]},
    {"sequence": "CGAUAGGUGUUGAGUUGGUUCUCAGCGCUUGUUG [T1-TTGGTT]", "values": [
      {"measurement": "binding signal", "setting": "[1]; beads alone 23, p=0.048, 37 C", "value": 713, "unit": "reads"}
    ]},
    {"sequence": "CGCCTCTCCGAGAGTGTAGGGCAUACAUTCTUGGAGAGGUG [T3-AGGGCAT]", "values": [
      {"measurement": "binding signal", "setting": "[2]; protein G beads 3", "value": 106, "unit": "reads"},
      {"measurement": "binding signal", "setting": "[1]; uppercase RNA, lowercase DNA, protein G beads 3", "value": 18, "unit": "reads"}
    ]},
    {"sequence": "CGCCTCTCCGAGAGTGTAUUAACCACAUTCTUGGAGAGGUG [T3-ATTAACC]", "values": [
      {"measurement": "binding signal", "setting": "[2]; below protein G bead background of 78", "value": 25, "unit": "reads"},
      {"measurement": "binding signal", "setting": "[1]; uppercase RNA, lowercase DNA, protein G beads 78, 150 mM NaCl, 10 mM MgCl2", "value": 3120, "unit": "reads"}
    ]}
  ]
}
